Measured values published in article PMC12002230, “The cryo-EM structure and physical basis for anesthetic inhibition of the THIK1 K2P channel” (Proceedings of the National Academy of Sciences of the …, 2025).

Biological target: the molecule itself
Assay: cryo-EM structure; purified THIK1EM at 2.4 mg/mL in 150 mM KCl, 20 mM Tris pH 8, 0.01% GDN; 300 kV Titan Krios, RELION; 3.2 Å

B1: C-terminally truncated human THIK1 (KCNK13), residues 1 to 309 (domain or fragment, UniProt Q9HB14 1-309, looked up)
chain: MAGRGFSWGPGHLNEDNARFLLLAALIVLYLLGGAAVFSALELAHERQAKQRWEERLANFSRGHNLSRDELRGFLRHYEEATRAGIRVDNVRPRWDFTGAFYFVGTVVSTIGFGMTTPATVGGKIFLIFYGLVGCSSTILFFNLFLERLITIIAYIMKSCHQRQLRRRGALPQESLKDAGQCEVDSLAGWKPSVYYVMLILCTASILISCCASAMYTPIEGWSYFDSLYFCFVAFSTIGFGDLVSSQNAHYESQGLYRFANFVFILMGVCCIYSLFNVISILIKQSLNWILRKMDSGCCPQCQRGLLRS
modifications: N-glycosylation at N59 and N65
notes: C-terminally truncated; The N-terminal GFP-His10 tags were removed by PreScission (3C) protease at LEVLFQ/GP; residues of the cleavage site probably remain at the N-terminus (surmised); Homodimeric K2P channel in GDN detergent; also called THIK1EM; hTHIK1EM; source: HEK293 GnTi- cells, baculovirus (BacMam) infection, purified (GFP-nanobody resin, 3C cleavage, Superdex 200 in GDN); not shown: GFP, …
- stoichiometry N: 2
